Measured values reported in the MegaScale stability set (Tsuboyama et al. 2023).

B1: 1ZHC (parent)
chain: HEFRDEISVLKANNPHFDKIFEKHNQLDDDIKTAEQQNASDAEVSHMKKQKLKLKDEIHSMIIEYREK
B2: HEEH_KT_rd6_3546 (parent)
chain: SEEDKEREHWERLNRDFELRVLDTTFIAHHAEEVIKLLRWLEK

Variants of: B1
Test: folding stability dG (cDNA display proteolysis); higher = more stable
Settings: PBS, room temperature

Folding stability dG [kcal/mol]: each site, then its substitutions
R66: C 0.384; Y 0.091; Q 0.328; S -0.498; W 0.163; V 0.348; I 0.692; F 0.147; H 1.53; L 1.07; M 0.762; K 0.404
Y65: I 0.311; S -0.451; E -0.672; W 0.961; Q 0.149; N -0.975; M 0.384; A 0.205; F 1.01; C -0.316; L 0.386; H 0.113; V -0.888
I63: W -0.039; T 0.157; V 0.61; Q 1.12; L 1.24; S 0.079; M 1.4; R 0.974; Y 0.129; N 0.622
K68: C 0.745; W 0.673; A 0.786; E -0.339; V 0.338; Y 0.578; S 0.62; T 0.49; F 0.363; Q 0.861; H 0.512; L 0.469; R 1.2; D -0.648; N 0.792; G 0.495; M 0.491; I 0.298
E67: K 1.08; Q 1.18; G 0.605; D 0.551; S 1.04; A 1.08; V 0.889; R 1.3; Y 0.933; C 1.33; M 0.866; W 0.996; N 1.26; T 1.38; I 1.07; H 1.04; F 0.916; L 1.02
E64: V -0.038; F 0.527; Q 0.969; I 0.119; N 0.583; G -0.85; S 0.735; T 0.262; W 0.701; Y 0.484; L 0.829; K 0.999; H 0.632; R 0.669; C 0.731; D 0.037; M 0.766; A 1.31

Variants of: B2
Test: as above
Settings: PBS, room temperature

Folding stability dG [kcal/mol], by site and new letter:
H9: I 1.86; E 1.2; F 1.91; N 1.23; V 1.47; Y 1.65; W 2.17; R 1.31; L 1.53; S 1.38; C 2.53; P 1.1; K 1.34; M 1.64; D 1.2; A 1.42; G 1.42; T 1.5; Q 1.35
L13: V 1.39; R 1.88; P 1.14; A 1.17; N 1.43; H 1.15; D 1.24; I 1.53; W 1.75; M 1.36; E 0.952; G 1.16; S 1.26; Y 1.77; F 1.7; K 1.4; T 1.52; Q 0.972
S1: C 2.12; W 1.16; Q 1.5; T 1.4; D 1.36; E 1.19; P 1.43; N 1.3; K 1.18; G 1.51; L 1.35; F 1.13; M 0.916; Y 1.27; V 1.31; H 1.35; R 1.36; A 1.28; I 1.22
R12: S 1.43; E 1.17; V 1.37; L 1.55; A 1.32; M 1.64; K 1.29; W 2.2; Q 1.26; F 1.76; Y 1.66; C 1.6; P 1.08; T 1.53; D 1.65; N 1.35; G 1.16; H 1.15; I 1.41
N14: F 2.4; D 1.1; E 1.2; A 1.84; C 2.44
E11: S 2.16; F 2.43; P 1.71; G 1.76; Q 1.73; A 2.07; H 1.79; M 1.9; N 1.59; W 2.37; Y 2.17; V 1.52; D 1.55; I 2.17; R 2.11; L 2.11; T 1.91; K 1.69
K5: P 1.28; E 1.39; G 1.27; W 1.67; Y 1.35; N 1.29; I 1.17; D 1.41; H 1.4; V 1.46; A 1.39; M 1.21; F 1.44; R 1.23; L 1.15; Q 1.11; T 1.21; S 1.08
R7: H 1.18; Y 1.21; W 1.39; V 1.28; M 1.46; P 1.19; F 1.13; S 1.3; G 1.47; E 1.3; T 1.26; Q 1.34; L 1.26; N 1.26; I 1.36; K 1.19; D 1.25; A 1.53
E2: G 1.57; P 1.34; A 1.48; D 1.44; S 1.31; M 1.43; W 1.57; I 1.6; T 1.48; Y 1.45; Q 1.62; L 1.53; V 1.45; R 1.61; H 1.42; K 1.45; F 1.36; N 1.38
W10: D 1.25; R 1.02; F 1.32; K 1.22; V 1.03; Y 1.09; H 1.09; M 1.05; G 1.12; L 1.36; C 1.79; E 1.05; S 1.17; N 1.15; I 1.2; A 1.03; Q 1.25; T 1.07; P 0.979
E3: G 1.28; M 1.33; P 1.3; F 1.63; I 1.56; T 1.19; Y 1.39; A 1.22; Q 1.41; N 1.51; D 1.49; W 1.65; L 1.61; R 1.48; H 1.36; V 1.29; S 1.45; K 1.4
D4: C 2.16; L 1.53; P 1.38; M 1.42; I 1.4; Q 1.42; S 1.29; T 1.42; K 1.41; R 1.39; W 1.45; Y 1.37; H 1.41; G 1.28; A 1.38; V 1.3; E 1.56; F 1.46; N 1.44
E6: H 1.43; F 1.73; W 1.8; Q 1.48; K 1.18; I 1.62; A 1.49; N 1.38; V 1.56; P 1.19; L 1.55; Y 1.55; D 0.956; M 1.54; S 1.47; G 1.35; T 1.56; R 1.38; C 1.7
E8: A 1.4; K 1.32; R 1.34; G 1.5; S 1.86; T 1.58; V 1.26; Y 1.28; H 1.15; F 1.96; N 1.48; W 2.04; P 1.09; I 1.43; M 1.73; L 1.47; D 1.17; Q 1.34
